We go through 1 substance from US20120315703A1.

The assay deals with Lrh-1 (liver receptor homolog 1, Nr5a2) (mouse) (UniProt P45448). Description: cell-based or functional assay.
Sequence of UniProt P45448 (P45448 whole entry): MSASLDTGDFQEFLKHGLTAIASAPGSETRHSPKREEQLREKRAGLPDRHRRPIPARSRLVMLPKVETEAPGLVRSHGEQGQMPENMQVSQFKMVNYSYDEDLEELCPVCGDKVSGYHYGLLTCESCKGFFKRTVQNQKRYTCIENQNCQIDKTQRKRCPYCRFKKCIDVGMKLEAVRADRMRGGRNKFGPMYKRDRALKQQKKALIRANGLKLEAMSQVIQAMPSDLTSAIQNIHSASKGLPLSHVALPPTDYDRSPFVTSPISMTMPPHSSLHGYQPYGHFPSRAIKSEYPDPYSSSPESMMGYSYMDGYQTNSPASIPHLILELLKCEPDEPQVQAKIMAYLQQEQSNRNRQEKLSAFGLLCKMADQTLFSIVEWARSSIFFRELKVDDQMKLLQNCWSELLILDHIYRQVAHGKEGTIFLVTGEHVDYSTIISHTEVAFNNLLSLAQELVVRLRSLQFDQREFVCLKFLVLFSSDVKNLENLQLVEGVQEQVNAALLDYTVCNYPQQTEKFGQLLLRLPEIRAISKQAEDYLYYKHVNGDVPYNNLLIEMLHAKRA

As for “Rarg (retinoic acid receptor gamma), full-length (from UniProt P18911 1-458)”, the luciferase reporter expression (luciferase cassette linked to the Oct4 promoter), fold increase on co-expression lay within 4 to 5 fold.
